The record followed here is the DeepSol protein solubility set.

The data set is described as follows: soluble on expression in E. coli; label from the status in PepcDB or PDB records.
On to “MYLHGTSRINGQGHLEIGGCDTTQLAKQYGTPLYVYDEGSIRGKCRAFHRAFKESGFSYQVAYASKAFLCMEMCRVAREENMSLDVVSGGELYTALQAGFPASRIHFHGNNKTEEEIVMALQANIGCFVVDNFFELEVLHDLAMQHGKFVNILIRVTPGVEAHTHEYITTGQDDSKFGFGVSNGQAMQAIGLALQKSNYNVLGIHSHIGSQIFETAGFVRAIEVLRQFLEEVREQTNYVVKVLNVGGGFGIRYTESDTPLTLETYVRAVTSAVREQFTVCEYPLPEIWIEPGRSIVGDAGTTIYTVGSVKDIPGIRKYVSVDGGMTDNLRPALYNARYEAMLANRANDENEELVSIAGKCCESGDMLIWDIHLPKVAASDLLAVSCTGAYGYSMANNYNRIRRPAVVFAKGGTSQVVVERETYENIIGNDRIRIKELV”, for which the “soluble on expression in E. coli” value was “not soluble”. Under “MAVVKVIRKLKAKRVVIKVGTSTLVYPDGSINLRAIDQLAFVISAMRHRGREVVLVSSGAIGVGLNYMGLKQRPKAIPEQQAIAAIGQTELISIYKERFAIYEQKIGQLLLTRDIFVYPKSHHNVLNTFEALLKQNVVPIVNENDTVAVDELDHETKFGDNDQLSAIVATNIGADLLIMLSDIDGFYDGNPNADARAQLLGHIEKVDQHTYKLAGGSGSRFGTGGMVTKLKAAERMIDANGQMILANGADPTIIFQILAGEPVGTLFGLEHHHHHH” stands “not soluble”; under “AMEDELKILIGKMRYRSSFGQNALQHSKEVALLAGLIAEQLGGDKKLARRAGILHDIGKALTQELGRDHVNLGVEVCKRHKEDPVVINAIYAHHGHEEILSVECASVCAADALSAGRPGARRKSDEEYAKRMQALEEIALEFDGVEKAYAMESGRELRVIVKSNQ”, “not soluble”; under “MSLTLKLGFKPFSFHLLRSLRTSQGIIKKKEGWLIKLENKTGRLGWGEIAPLNLSELNICGKILEKLGNSPSRQTLEEGIPNWPGSLAFAIGAALAEIDYLIGNDSKNKWLSVTSSALLLPNEESILLNTLQSVLDKHKETQKELTFKWKIRNTSSDSDLNLLKKILFLLPENTRLRIDANGGLNRIQAHEWAQALQNEARIEWLEQPLAVDDIEGMNELAQMLPIALDESLIYNPSLRKSWTGWQIRRPLIEGDPRILLKEFKEKNSYISISTSFETGIGKRWIEHFAALQLRGLTPTQPGLAPGWCPKGPLFCQNPQLVWEAAEGHHHHHH”, “soluble”. For “MGSDKIHHHHHHMGNVSTFSIPGPARIPSAATTPAPHPWNRYVALGDSFTEGYGDPEPQSPGGVRGWADRVAEELSLGHQDFAYANLAVRGRLLQQIMDDQLGPALELRPDLVTLSAGGNDLVFRGSDPDKLAERLDPAIGLLSATGATVVLFTGPDWGNTPVFGRIRGKVAIFNENLRTIAARHDGVVADLWTLRQLAAPHMWDPDRLHFSPLGHHTIAAMVLETLNVPHTLKPLEPKVLPVSSWREARSSDLVWAKDYLFPWVVRRVRQRPANLGLKAKRPEPGPIFGPGVAHGPFPAGPLTAGKP” the value was “not soluble”. For “MIPATLHQLKVFETTARHGSFTKAAEELSITQPTVSGQVKQLTQTIGMPLFEHIGRKLYLTEAGEELLATCQEIFERLDNFEMKLAALQGAKRGQLRLGVITTTKYFVPRILGEFCQDYPDIDVSLQVINHQQLHDRMADNLDDLYILSNLPDDLDVHAQAFLDNPLVVVARADHPLAHQKNLPLSVLDGADFVTREMGSGTRLAVEKLLAEHDVSVQVRLELGSNEAIKQAIAGGLGISVLSRHTLITEPPHGELTVLDVEHFPIQRHWYVAYLAGKQLSVIAQAFLEFMVRSSQKTLENSGRRSLALQP”, the “soluble on expression in E. coli” value was “not soluble”.

For “MLGAIIGDIVGSVYEWNNIKTKDFPLFRKDCFFTDDTVMTCAVAEAIMNGGQKDDFIDAMKKYGRMYPNADYGARFNAWLNSDNREPYNSFGNGSAMRISPCAWIMDCGFYAKTGIWPSSRGLTSLSAEVTHNHPEGVKGAMATADAIFLCRFYFGGYCREYEQSINDNPTECKRRIKDYIEKEYDYNLSQTLDEIRPNYRFNETCQETVPQAIIAFLESRDFEDAIRNAISLGGDSDTLAAITCSIAEAAYGIPDWIKDKAYSYLDEPLKDVVRRWENRIKAYLEHHHHHH”, the “soluble on expression in E. coli” value is recorded as “soluble”.

Take “GPGSMRLLSFSNVPLFLALFPPLPLLSCASVWHTRRHSFSEIFFVGSFIAAPFRCIVSPRVALYRARLRFLAPAACTRALPFAYTGQQGERQIKMITATADAGSAAKAAAAPPARMFDCLDAASKERVTMLLSHYQVLLPVEQASFMQELERYNQEQQTTALERNKAGEVWIRYTNPRLQAVQARDPAYVQRSISHTAASRGSKGDAAPEEATAPCSLEDLVHIRGMFGEPEGVPIRVGKMSLYEKLQQNMRNRRSTACGSLANTTVSSIPTAADAGHGAARVSVPFGPFAEAPAKPAEGKREVGDNASPKTSAQSESGERAVALVCADTFPSHTSSVRPSAPYRNNAYQAVRLAMSSPGYTATTQPTSVAELQTPLDGVKPVLNTTAFPITEEELRDWFDELDVHGRGVLSVEEFQRYMQSLERDLGVPTEYATLELDGAQLAKDGWLSFEAFSYLVLRFVRA”: the “soluble on expression in E. coli” value is given as “not soluble”.

With “MNMSQNLDFIHSAQRTIGLERDAVDSLLARIGDDFVKACELLLAGKGRVVVVGMGKSGHVGKKIAATLASTGTPSFFVHPAEASHGDMGMITKDDVVLALSNSGSTAEIVTLLPLIKRLGITLISMTGNPESPLAKAAEVNLDASVGQEACPLNLAPTSSTTVTLVLGDALAIALLEARGFTAEDFAFSHPGGALGRRLLLKVEDVMHVGEGLPQVLLGTSLTGALMEMTRKGLGMTVVLDEHGKLAGIFTDGDLRRALDRGIDVRQVTIDQVMTVHGKTVRAEILAAEALKIMEDNKIGALVVVDADDRPVGALNMHDLLRAGVM”, the “soluble on expression in E. coli” value is reported as “not soluble”.

“ASASTPHALLLISIDGLRADMLDRGITPNLSHLAREGVRARWMAPSYPSLTFPNHYTLVTGLRPDHHGIVHNSMRDPTLGGFWLSKSEAVGDARWWGGEPVWVGVENTGQHAATWSWPGSEAAIKGVRPSQWRHYQKGVRLDTRVDAVRGWLATDGAQRNRLVTLYFEHVDEAGHDHGPESRQYADAVRAVDAAIGRLLAGMQRDGTRARTNIIVVSDHGMAEVAPGHAISVEDIAPPQIATAITDGQVIGFEPLPGQQAAAEASVLGAHDHYDCWRKAELPARWQYGSHPRIPSLVCQMHEGWDALFPDKLAKRAQRGTRGSHGYDPALPSMRAVFLAQGPDLAQGKTLPGFDNVDVYALMSRLLGIPAAPNDGNPATLLPALRMPPAPDAR”: the “soluble on expression in E. coli” value is “soluble”. For “MDKSDMQRTVDSLRSQLNIERTPITVSAAELRRFTESQEDPLVNPIDKKVNPWAEKSKCSML” the value was “not soluble”.

“MGSDKIHHHHHHMFDLHVHSVFSDGELIPSEIARRMYAAGNKGFAITDHADFTNIQDILAKLTRIKEHMESYEAKFLVGVEITHVPPSLIGKAVELAWKEGAEIVVVHGETVAEPVKEGTNLAALSEEITILAHPGIMSEEEAELARENGIYVEISARRGHCLGNGRVARLAEKYGFELVINTDMHSPSDIINDSTAERILKGAGVKEWKSVLENNEKLFRKLRK”: the “soluble on expression in E. coli” value is “not soluble”. For “VRALLAQNRLVTLCGTGGVGKTRLAIQIASASELRDGLCFVDLAPITESGIVAATAARAVGLPDQPGRSTMDSLRRFIGNRRMLMVLDNCEHLLDACAALVVELLGACPELTILATSREPIGMAGEITWRVPSMSITDEAVELFADRASRVQPGFTIANHNAAAVGEICRRLDGIPLAIEFAAARVRSMSPLEIADGLDDCFRLLAGGVRGAVQRQQTLRASIDWSHALLTETEQILFRRLAPFVGGFDLAAVRAVAAGSDLDPFSVLDQLTLLVDKSLVVADDCQGRTRYRLLETVRRYALEKLGDSGEADVHARHRDYYTALAASLNTPADNDHQRLVARAETEIDNLRAAFAWSRENGHITEALQLASSLQPIWFGRAHLREGLSWFNSILEDQRFHRLAVSTAVRARALADKAMLSTWLATSPVGATDIIAPAQQALAMAREVGDPAALVRALTACGCSSGYNAEAAAPYFAEATDLARAIDDKWTLCQILYWRGVGTCISGDPNALRAAAEECRDLADTIGDRFVSRHCSLWLSLAQMWAGNLTEALELSREITAEAEASNDVPTKVLGLYTQAQVLAYCGASAAHAIAGACIAAATELGGVYQGIGYAAMTYAALAAGDVTAALEASDAARPILRAQPDQVTMHQVLMAQLALAGGDAIAARQFANDAVDATNGWHRMVALTIRARVATARGEPELARDDAHAALACGAELHIYQGMPDAMELLAGLAGEVGSHSEGVRLLGAAAALRQQTRQVRFKIWDAGYQASVTALREAMGDEDFDRAWAEGAALSTDEAIAYAQRGRGERKRPARGWGSLTPTERDVVRLVSEGLSNKDIAKRLFVSPRTVQTHLTHVYAKLGLPSRVQLVDEAARRGSPS” the value was “not soluble”; for “GSHMSNAKTKLGITKYSIVTNSNDSVTLRLMTEHDLAMLYEWLNRSHIVEWWGGEEARPTLADVQEQYLPSVLAQESVTPYIAMLNGEPIGYAQSYVALGSGDGWWEEETDPGVRGIDQLLANASQLGKGLGTKLVRALVELLFNDPEVTKIQTDPSPSNLRAIRCYEKAGFERQGTVTTPDGPAVYMVQTRQAFERTRSDA”, “soluble”; for “GSHMGQLGGEEWTRHGSFVNKPTRGWLHPNDKVMGPGVSYLVRYMGCVEVLQSMRALDFNTRTQVTREAISLVCEAVPGAKGATRRRKPCSRPLSSILGRSNLKFAGMPITLTVSTSSLNLMAADCKQIIANHHMQSISFASGGDPDTAEYVAYVAKDPVNQRACHILECPEGLAQDVISTIGQAFELRFKQYLR”, “soluble”. For “GLECDGKVNICCKKQFFVSFKDIGWNDWIIAPSGYHANYCEGECPSHIAGTSGSSLSFHSTVINHYRMRGHSPFANLKSCCVPTKLRPMSMLYYDDGQNIIKKDIQNMIVEECGCS” the value was “soluble”; for “MAALAGDEAWRCRGCGTYVPLSQRLYRTANEAWHGSCFRCSECQESLTNWYYEKDGKLYCHKDYWAKFGEFCHGCSLLMTGPAMVAGEFKYHPECFACMSCKVIIEDGDAYALVQHATLYCGKCHNEVVLAPMFERLSTESVQDQLPYSVTLISMPATTECRRGFSVTVESASSNYATTVQVKEVNRMHISPNNRNAIHPGDRILEINGTPVRTLRVEEVEDAIKQTSQTLQLLIEHDPVPQRLDQLRLDARLPPHMQSTGHTLMLSTLDTKENQEGTLRRRSLRRSNSISKSPGPSSPKEPLLLSRDISRSESLRCSSSYSQQIFRPCDLIHGEVLGKGFFGQAIKVTHKATGKVMVMKELIRCDEETQKTFLTEVKVMRSLDHPNVLKFIGVLYKDKKLNLLTEYIEGGTLKDFLRSVDPFPWQQKVRFAKGISSGMAYLHSMCIIHRDLNSHNCLIKLDKTVVVADFGLSRLIVEERKRPPVEKATTKKRTLRKSDRKKRYTVVGNPYWMAPEMLNGKSYDETVDVFSFGIVLCEIIGQVYADPDCLPRTLDFGLNVKLFWEKFVPTDCPPAFFPLAAICCKLEPESRPAFSKLEDSFEALSLFLGELAIPLPAELEDLDHTVSMEYGLTRDSPP”, “soluble”. Under “MGSDKIHHHHHHMPCKNFFTTRPIMEEDCLWDKRRKIVDDLFRTVLRGNIAILLGPRRVGKTSVVNVISQKFAKRRNHHYIYFNFSRFIGARAISIADIEPKRTSLKLITTSKSYVISLKGISVEVRKTSIEEFTSDFSTLVRILSQNSERGLLIFDEAQVLARLKNLDFRGLIQEITDSYPNISMIFTGSMPGLLIEYLNPGPDKPNFMRASETFTLSRWNVEEGLEFLKKGFESYGISVRNELELERAVKELGGIPGFISYYGITVINLVRSGVPVEKALPRALEESKRYALEEWKKDLEAFLNVYNSPIYVEVMKVLASSYPTALKGAEVYRRMNRAPKRIQHIYKYLDVLEKVGFIRSEGGKYWIEDPILRELLT” stands “not soluble”.
